Test results as given in patent US20220402983A1 (Janssen / Centocor, published 2022).
Bridges are numbered along the chain shown (N, C = ends). [ ]: non-standard residue; d: D form. The star is where a group is joined. Trp(7-Me) = Cc1cccc2c(C[C@H](N)C(=O)O)c[nH]c12; 2Nal = N[C@@H](Cc1ccc2ccccc2c1)C(=O)O; AEF = NCCOc1ccc(C[C@H](N)C(=O)O)cc1; αMeF = C[C@](N)(Cc1ccccc1)C(=O)O; Cit = NC(=O)NCCC[C@H](N)C(=O)O; αMeL = CC(C)C[C@](C)(N)C(=O)O; Pen = CC(C)(S)[C@H](N)C(=O)O; αMeK = C[C@](N)(CCCCN)C(=O)O; Ac5c = NC1(C(=O)O)CCCC1; Thp = NC1(C(=O)O)CCOCC1; Tfa = O=C(C(F)(F)F)*

T1: human IL-23R (interleukin-23 receptor) (human, UniProt Q5VWK5 24-629)
T1 sequence (looked up): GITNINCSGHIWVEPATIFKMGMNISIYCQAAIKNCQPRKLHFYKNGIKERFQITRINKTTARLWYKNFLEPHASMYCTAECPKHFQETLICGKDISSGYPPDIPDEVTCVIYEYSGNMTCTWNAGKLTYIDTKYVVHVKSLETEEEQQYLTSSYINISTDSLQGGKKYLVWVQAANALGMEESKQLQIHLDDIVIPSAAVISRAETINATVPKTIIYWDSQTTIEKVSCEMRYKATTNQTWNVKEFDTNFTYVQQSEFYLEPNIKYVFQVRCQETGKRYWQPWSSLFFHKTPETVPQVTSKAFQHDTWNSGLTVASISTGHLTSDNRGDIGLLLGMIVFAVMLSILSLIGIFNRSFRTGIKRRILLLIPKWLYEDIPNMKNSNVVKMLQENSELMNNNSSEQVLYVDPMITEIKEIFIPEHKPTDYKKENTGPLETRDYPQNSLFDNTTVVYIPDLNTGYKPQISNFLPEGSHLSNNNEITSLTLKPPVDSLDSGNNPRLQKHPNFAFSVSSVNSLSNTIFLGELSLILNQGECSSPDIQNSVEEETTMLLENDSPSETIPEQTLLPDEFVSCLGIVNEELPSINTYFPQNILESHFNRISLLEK


target: T1, human IL-23R (interleukin-23 receptor); test: cell-based or functional assay

| PBMC pSTAT3 IC50 (nM) | Binder |
| --- | --- |
| 2.2 | Ac-[dR][Pen]NTWK(Ac)[Pen][AEF][2Nal][Thp]EN[Thp]-NH2 (disulfide 2-7; SMILES CC(=O)NCCCC[C@@H]1NC(=O)[C@H](Cc2c[nH]c3ccccc23)NC(=O)[C@H]([C@@H](C)O)NC(=O)[C@H](CC(N)=O)NC(=O)[C@@H](NC(=O)[C@@H](CCCNC(=N)N)NC(C)=O)C(C)(C)SSC(C)(C)[C@@H](C(=O)N[C@@H](Cc2ccc(OCCN)cc2)C(=O)N[C@@H](Cc2ccc3ccccc3c2)C(=O)NC2(C(=O)N[C@@H](CCC(=O)O)C(=O)N[C@@H](CC(N)=O)C(=O)NC3(C(N)=O)CCOCC3)CCOCC2)NC1=O) [Compound No. 105] |
| 11 | Ac-[Pen]NT[Trp(7-Me)]K(Ac)[Pen][AEF][2Nal][αMeK]K(Ac)N[Thp][dY]-NH2 (disulfide 1-6; SMILES CC(=O)NCCCC[C@@H]1NC(=O)[C@H](Cc2c[nH]c3c(C)cccc23)NC(=O)[C@H]([C@@H](C)O)NC(=O)[C@H](CC(N)=O)NC(=O)[C@@H](NC(C)=O)C(C)(C)SSC(C)(C)[C@@H](C(=O)N[C@@H](Cc2ccc(OCCN)cc2)C(=O)N[C@@H](Cc2ccc3ccccc3c2)C(=O)N[C@@](C)(CCCCN)C(=O)N[C@@H](CCCCNC(C)=O)C(=O)N[C@@H](CC(N)=O)C(=O)NC2(C(=O)N[C@H](Cc3ccc(O)cc3)C(N)=O)CCOCC2)NC1=O) [Compound No. 107] |
| 57 | Ac-[Pen]NTWK(Tfa)[Pen][AEF][2Nal][αMeK]K(Ac)N[Thp]-NH2 (disulfide 1-6; SMILES CC(=O)NCCCC[C@H](NC(=O)[C@](C)(CCCCN)NC(=O)[C@H](Cc1ccc2ccccc2c1)NC(=O)[C@H](Cc1ccc(OCCN)cc1)NC(=O)[C@H]1NC(=O)[C@H](CCCCNC(=O)C(F)(F)F)NC(=O)[C@H](Cc2c[nH]c3ccccc23)NC(=O)[C@H]([C@@H](C)O)NC(=O)[C@H](CC(N)=O)NC(=O)[C@@H](NC(C)=O)C(C)(C)SSC1(C)C)C(=O)N[C@@H](CC(N)=O)C(=O)NC1(C(N)=O)CCOCC1) [Compound No. 103] |
| 0.74 | Ac-[dR][Pen]NT[Trp(7-Me)]K(Ac)[Pen][AEF][2Nal][Ac5c]EN[Thp]-NH2 (disulfide 2-7; SMILES CC(=O)NCCCC[C@@H]1NC(=O)[C@H](Cc2c[nH]c3c(C)cccc23)NC(=O)[C@H]([C@@H](C)O)NC(=O)[C@H](CC(N)=O)NC(=O)[C@@H](NC(=O)[C@@H](CCCNC(=N)N)NC(C)=O)C(C)(C)SSC(C)(C)[C@@H](C(=O)N[C@@H](Cc2ccc(OCCN)cc2)C(=O)N[C@@H](Cc2ccc3ccccc3c2)C(=O)NC2(C(=O)N[C@@H](CCC(=O)O)C(=O)N[C@@H](CC(N)=O)C(=O)NC3(C(N)=O)CCOCC3)CCCC2)NC1=O) [Compound No. 101] |
| 13 | Ac-[dR][Pen]NTWK(Ac)[Pen][AEF][2Nal][Thp]EN[αMeF]-NH2 (disulfide 2-7; SMILES CC(=O)NCCCC[C@@H]1NC(=O)[C@H](Cc2c[nH]c3ccccc23)NC(=O)[C@H]([C@@H](C)O)NC(=O)[C@H](CC(N)=O)NC(=O)[C@@H](NC(=O)[C@@H](CCCNC(=N)N)NC(C)=O)C(C)(C)SSC(C)(C)[C@@H](C(=O)N[C@@H](Cc2ccc(OCCN)cc2)C(=O)N[C@@H](Cc2ccc3ccccc3c2)C(=O)NC2(C(=O)N[C@@H](CCC(=O)O)C(=O)N[C@@H](CC(N)=O)C(=O)N[C@@](C)(Cc3ccccc3)C(N)=O)CCOCC2)NC1=O) [Compound No. 106] |
| 8.4 | Ac-[dR][Pen]NTWK(Ac)[Pen][AEF][2Nal][Ac5c]EN[αMeF]-NH2 (disulfide 2-7; SMILES CC(=O)NCCCC[C@@H]1NC(=O)[C@H](Cc2c[nH]c3ccccc23)NC(=O)[C@H]([C@@H](C)O)NC(=O)[C@H](CC(N)=O)NC(=O)[C@@H](NC(=O)[C@@H](CCCNC(=N)N)NC(C)=O)C(C)(C)SSC(C)(C)[C@@H](C(=O)N[C@@H](Cc2ccc(OCCN)cc2)C(=O)N[C@@H](Cc2ccc3ccccc3c2)C(=O)NC2(C(=O)N[C@@H](CCC(=O)O)C(=O)N[C@@H](CC(N)=O)C(=O)N[C@@](C)(Cc3ccccc3)C(N)=O)CCCC2)NC1=O) [Compound No. 102] |
| 21 | Ac-[Pen]NT[Trp(7-Me)]K(Ac)[Pen][AEF][2Nal][αMeK]K(Ac)N[αMeF][dY]-NH2 (disulfide 1-6; SMILES CC(=O)NCCCC[C@@H]1NC(=O)[C@H](Cc2c[nH]c3c(C)cccc23)NC(=O)[C@H]([C@@H](C)O)NC(=O)[C@H](CC(N)=O)NC(=O)[C@@H](NC(C)=O)C(C)(C)SSC(C)(C)[C@@H](C(=O)N[C@@H](Cc2ccc(OCCN)cc2)C(=O)N[C@@H](Cc2ccc3ccccc3c2)C(=O)N[C@@](C)(CCCCN)C(=O)N[C@@H](CCCCNC(C)=O)C(=O)N[C@@H](CC(N)=O)C(=O)N[C@@](C)(Cc2ccccc2)C(=O)N[C@H](Cc2ccc(O)cc2)C(N)=O)NC1=O) [Compound No. 100] |
| 8.2 | Ac-[Pen]NT[Trp(7-Me)][Cit][Pen][AEF][2Nal][αMeL]K(Ac)N[αMeF]-NH2 (disulfide 1-6; SMILES CC(=O)NCCCC[C@H](NC(=O)[C@](C)(CC(C)C)NC(=O)[C@H](Cc1ccc2ccccc2c1)NC(=O)[C@H](Cc1ccc(OCCN)cc1)NC(=O)[C@H]1NC(=O)[C@H](CCCNC(N)=O)NC(=O)[C@H](Cc2c[nH]c3c(C)cccc23)NC(=O)[C@H]([C@@H](C)O)NC(=O)[C@H](CC(N)=O)NC(=O)[C@@H](NC(C)=O)C(C)(C)SSC1(C)C)C(=O)N[C@@H](CC(N)=O)C(=O)N[C@@](C)(Cc1ccccc1)C(N)=O) [Compound No. 104] |
| 15 | Ac-[Pen]NTWK(Ac)[Pen][AEF][2Nal][αMeK]K(Ac)N[αMeF]-NH2 (disulfide 1-6; SMILES CC(=O)NCCCC[C@@H]1NC(=O)[C@H](Cc2c[nH]c3ccccc23)NC(=O)[C@H]([C@@H](C)O)NC(=O)[C@H](CC(N)=O)NC(=O)[C@@H](NC(C)=O)C(C)(C)SSC(C)(C)[C@@H](C(=O)N[C@@H](Cc2ccc(OCCN)cc2)C(=O)N[C@@H](Cc2ccc3ccccc3c2)C(=O)N[C@@](C)(CCCCN)C(=O)N[C@@H](CCCCNC(C)=O)C(=O)N[C@@H](CC(N)=O)C(=O)N[C@@](C)(Cc2ccccc2)C(N)=O)NC1=O) [Compound No. 98] |
| 4.2 | Ac-[dR][Pen]NT[Trp(7-Me)]Q[Pen][AEF][2Nal][Ac5c]EN[Thp]-NH2 (disulfide 2-7; SMILES CC(=O)N[C@H](CCCNC(=N)N)C(=O)N[C@@H]1C(=O)N[C@@H](CC(N)=O)C(=O)N[C@@H]([C@@H](C)O)C(=O)N[C@@H](Cc2c[nH]c3c(C)cccc23)C(=O)N[C@@H](CCC(N)=O)C(=O)N[C@H](C(=O)N[C@@H](Cc2ccc(OCCN)cc2)C(=O)N[C@@H](Cc2ccc3ccccc3c2)C(=O)NC2(C(=O)N[C@@H](CCC(=O)O)C(=O)N[C@@H](CC(N)=O)C(=O)NC3(C(N)=O)CCOCC3)CCCC2)C(C)(C)SSC1(C)C) [Compound No. 99] |
